Sequences and labels used below:
B3: ferrochelatase (FECH) (protein)
chain: GAKPQVQPQKRKPKTGILMLNMGGPETLGDVHDFLLRLFLDRDLMTLPIQNKLAPFIAKRRTPKIQEQYRRIGGGSPIKIWTSKQGEGMVKLLDELSPNTAPHKYYIGFRYVHPLTEEAIEEMERDGLERAIAFTQYPQYSCSTTGSSLNAIYRYYNQVGRKPTMKWSTIDRWPTHHLLIQCFADHILKELDHFPLEKRSEVVILFSAHSLPMSVVNRGDPYPQEVSATVQKVMERLEYCNPYRLVWQSKVGPMPWLGPQTDESIKGLCERGRKNILLVPIAFTSDHIETLYELDIEYSQVLAKECGVENIRRAESLNGNPLFSKALADLVHSHIQSNELCSKQLTLSCPLCVNPVCRETKSFFTSQQL

Assay in all cases: SPR
In series [1] the target is Adrenodoxin reductase (Homo sapiens) (UniProt P22570). The conditions noted are these: cited from earlier work.
Series [2] has the same target. The conditions noted are these: cited from earlier work. This is another data set of the same source.
The target in series [3] is T1, adrenodoxin reductase (ADR) (Homo sapiens, UniProt P22570).
T1 chain: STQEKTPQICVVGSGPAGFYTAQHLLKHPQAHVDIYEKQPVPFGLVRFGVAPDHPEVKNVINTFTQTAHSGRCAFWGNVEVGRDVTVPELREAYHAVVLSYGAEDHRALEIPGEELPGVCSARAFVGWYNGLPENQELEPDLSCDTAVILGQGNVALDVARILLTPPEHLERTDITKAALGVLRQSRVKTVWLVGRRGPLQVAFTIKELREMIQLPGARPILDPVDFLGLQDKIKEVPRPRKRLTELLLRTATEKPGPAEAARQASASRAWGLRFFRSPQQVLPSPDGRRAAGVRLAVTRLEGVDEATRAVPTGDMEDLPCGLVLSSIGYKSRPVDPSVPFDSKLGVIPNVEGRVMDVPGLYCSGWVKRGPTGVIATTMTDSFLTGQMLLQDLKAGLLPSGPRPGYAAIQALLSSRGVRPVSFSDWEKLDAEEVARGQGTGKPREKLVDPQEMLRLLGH

For the series “ferrochelatase (FECH)”, the target named is B3.
The series “SPR” concerns the molecule itself.

We go through ten molecules from article PMC7593955 (2020).

Ferrochelatase (from UniProt P22830): the Kd in series [1] was 2000 nM; in series [2], 13000 nM.

B1: ferrochelatase (FECH) (protein)
chain: GAKPQVQPQKRKPKTGILMLNMGGPETLGDVHDFLLRLFLDRDLMTLPIQNKLAPFIAKRRTPKIQEQYRRIGGGSPIKIWTSKQGEGMVKLLDELSPNTAPHKYYIGFRYVHPLTEEAIEEMERDGLERAIAFTQYPQYSCSTTGSSLNAIYRYYNQVGRKPTMKWSTIDRWPTHHLLIQCFADHILKELDHFPLEKRSEVVILFSAHSLPMSVVNRGDPYPQEVSATVQKVMERLEYCNPYRLVWQSKVGPMPWLGPQTDESIKGLCERGRKNILLVPIAFTSDHIETLYELDIEYSQVLAKECGVENIRRAESLNGNPLFSKALADLVHSHIQSNELCSKQLTLSCPLCVNPVCRETKSFFTSQQL
modifications: 100 uM 5-nitroisatin
Turning to B1, the Kd in series [3] came to 13700 nM; with ferrochelatase (FECH), 560 nM.

B2: ferrochelatase (FECH) (protein)
chain: GAKPQVQPQKRKPKTGILMLNMGGPETLGDVHDFLLRLFLDRDLMTLPIQNKLAPFIAKRRTPKIQEQYRRIGGGSPIKIWTSKQGEGMVKLLDELSPNTAPHKYYIGFRYVHPLTEEAIEEMERDGLERAIAFTQYPQYSCSTTGSSLNAIYRYYNQVGRKPTMKWSTIDRWPTHHLLIQCFADHILKELDHFPLEKRSEVVILFSAHSLPMSVVNRGDPYPQEVSATVQKVMERLEYCNPYRLVWQSKVGPMPWLGPQTDESIKGLCERGRKNILLVPIAFTSDHIETLYELDIEYSQVLAKECGVENIRRAESLNGNPLFSKALADLVHSHIQSNELCSKQLTLSCPLCVNPVCRETKSFFTSQQL
modifications: 100 uM 5,7-dichloroisatin
As to B2, the results for the Kd (in series [3]; with ferrochelatase (FECH)) were 14700 nM and 580 nM, respectively.
In the case of B3, the Kd in series [3] is 15200 nM; in the series “SPR” it was 550 nM.

B4: ferrochelatase (FECH) (protein)
chain: GAKPQVQPQKRKPKTGILMLNMGGPETLGDVHDFLLRLFLDRDLMTLPIQNKLAPFIAKRRTPKIQEQYRRIGGGSPIKIWTSKQGEGMVKLLDELSPNTAPHKYYIGFRYVHPLTEEAIEEMERDGLERAIAFTQYPQYSCSTTGSSLNAIYRYYNQVGRKPTMKWSTIDRWPTHHLLIQCFADHILKELDHFPLEKRSEVVILFSAHSLPMSVVNRGDPYPQEVSATVQKVMERLEYCNPYRLVWQSKVGPMPWLGPQTDESIKGLCERGRKNILLVPIAFTSDHIETLYELDIEYSQVLAKECGVENIRRAESLNGNPLFSKALADLVHSHIQSNELCSKQLTLSCPLCVNPVCRETKSFFTSQQL
modifications: 100 uM 5-bromoisatin
As for B4, the Kd in series [3] stood at 15500 nM; with ferrochelatase (FECH), 530 nM.

B5: ferrochelatase (FECH) (protein)
chain: GAKPQVQPQKRKPKTGILMLNMGGPETLGDVHDFLLRLFLDRDLMTLPIQNKLAPFIAKRRTPKIQEQYRRIGGGSPIKIWTSKQGEGMVKLLDELSPNTAPHKYYIGFRYVHPLTEEAIEEMERDGLERAIAFTQYPQYSCSTTGSSLNAIYRYYNQVGRKPTMKWSTIDRWPTHHLLIQCFADHILKELDHFPLEKRSEVVILFSAHSLPMSVVNRGDPYPQEVSATVQKVMERLEYCNPYRLVWQSKVGPMPWLGPQTDESIKGLCERGRKNILLVPIAFTSDHIETLYELDIEYSQVLAKECGVENIRRAESLNGNPLFSKALADLVHSHIQSNELCSKQLTLSCPLCVNPVCRETKSFFTSQQL
modifications: NHS/EDC-treated immobilized FECH
B5 displayed a Kd with ferrochelatase (FECH) of roughly 500 nM.

B6: ferrochelatase (FECH) (protein)
chain: GAKPQVQPQKRKPKTGILMLNMGGPETLGDVHDFLLRLFLDRDLMTLPIQNKLAPFIAKRRTPKIQEQYRRIGGGSPIKIWTSKQGEGMVKLLDELSPNTAPHKYYIGFRYVHPLTEEAIEEMERDGLERAIAFTQYPQYSCSTTGSSLNAIYRYYNQVGRKPTMKWSTIDRWPTHHLLIQCFADHILKELDHFPLEKRSEVVILFSAHSLPMSVVNRGDPYPQEVSATVQKVMERLEYCNPYRLVWQSKVGPMPWLGPQTDESIKGLCERGRKNILLVPIAFTSDHIETLYELDIEYSQVLAKECGVENIRRAESLNGNPLFSKALADLVHSHIQSNELCSKQLTLSCPLCVNPVCRETKSFFTSQQL
modifications: 100 uM isatin
Regarding B6, the values for the Kd (in series [3]; with ferrochelatase (FECH)) were 3400 nM and 600 nM, respectively.

B7: ferrochelatase (FECH) (protein)
chain: GAKPQVQPQKRKPKTGILMLNMGGPETLGDVHDFLLRLFLDRDLMTLPIQNKLAPFIAKRRTPKIQEQYRRIGGGSPIKIWTSKQGEGMVKLLDELSPNTAPHKYYIGFRYVHPLTEEAIEEMERDGLERAIAFTQYPQYSCSTTGSSLNAIYRYYNQVGRKPTMKWSTIDRWPTHHLLIQCFADHILKELDHFPLEKRSEVVILFSAHSLPMSVVNRGDPYPQEVSATVQKVMERLEYCNPYRLVWQSKVGPMPWLGPQTDESIKGLCERGRKNILLVPIAFTSDHIETLYELDIEYSQVLAKECGVENIRRAESLNGNPLFSKALADLVHSHIQSNELCSKQLTLSCPLCVNPVCRETKSFFTSQQL
modifications: 100 uM 5-fluoroisatin
For B7, the Kd in series [3] turned out to be 13800 nM; with ferrochelatase (FECH), 610 nM.

B8: ferrochelatase (FECH) (protein)
chain: GAKPQVQPQKRKPKTGILMLNMGGPETLGDVHDFLLRLFLDRDLMTLPIQNKLAPFIAKRRTPKIQEQYRRIGGGSPIKIWTSKQGEGMVKLLDELSPNTAPHKYYIGFRYVHPLTEEAIEEMERDGLERAIAFTQYPQYSCSTTGSSLNAIYRYYNQVGRKPTMKWSTIDRWPTHHLLIQCFADHILKELDHFPLEKRSEVVILFSAHSLPMSVVNRGDPYPQEVSATVQKVMERLEYCNPYRLVWQSKVGPMPWLGPQTDESIKGLCERGRKNILLVPIAFTSDHIETLYELDIEYSQVLAKECGVENIRRAESLNGNPLFSKALADLVHSHIQSNELCSKQLTLSCPLCVNPVCRETKSFFTSQQL
modifications: 100 uM 5-methylisatin
On to B8, for which the Kd turned out to be 14300 nM in series [3] and 570 nM with ferrochelatase (FECH).

B9: ferrochelatase (FECH) (protein)
chain: GAKPQVQPQKRKPKTGILMLNMGGPETLGDVHDFLLRLFLDRDLMTLPIQNKLAPFIAKRRTPKIQEQYRRIGGGSPIKIWTSKQGEGMVKLLDELSPNTAPHKYYIGFRYVHPLTEEAIEEMERDGLERAIAFTQYPQYSCSTTGSSLNAIYRYYNQVGRKPTMKWSTIDRWPTHHLLIQCFADHILKELDHFPLEKRSEVVILFSAHSLPMSVVNRGDPYPQEVSATVQKVMERLEYCNPYRLVWQSKVGPMPWLGPQTDESIKGLCERGRKNILLVPIAFTSDHIETLYELDIEYSQVLAKECGVENIRRAESLNGNPLFSKALADLVHSHIQSNELCSKQLTLSCPLCVNPVCRETKSFFTSQQL
modifications: 100 uM 5-iodoisatin
Turning to B9, the Kd in series [3] was 14100 nM; with ferrochelatase (FECH) it was 540 nM.

Usually Kd stands for the concentration at which binding is half-saturated.
